According to the supplement of paper PMC10567573:

B1: ETS1 (parent)
chain: YVRDRADLNKDKPVIPAAALAGYT

Variants of: B1
Assay: protein stability index of a GFP-peptide fusion (GPS, HEK-293T) (PSI 1-6); higher = more stable
Settings: c terminus: a fixed tail appended
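Note: lentivirally expressed fusions sorted by FACS into six bins by GFP to DsRed ratio, PSI derived from sequencing read proportions per bin multiplied by bin number.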

Variant	protein stability index
YVRDDADLNKDKPVIPAAALAGYT [R5D]	2.14
YVRDPADLNKDKPVIPAAALAGYT [R5P]	1.72
YVRDFADLNKDKPVIPAAALAGYT [R5F]	3.08
YVRDCADLNKDKPVIPAAALAGYT [R5C]	2.36
YVRDVADLNKDKPVIPAAALAGYT [R5V]	1.44
YVRDKADLNKDKPVIPAAALAGYT [R5K]	2.11
YVRDRADSNKDKPVIPAAALAGYT [L8S]	1.72
YVRDRADYNKDKPVIPAAALAGYT [L8Y]	2.9
YVRDRADKNKDKPVIPAAALAGYT [L8K]	2.19
YVRDRADHNKDKPVIPAAALAGYT [L8H]	2.29
YVRDRADINKDKPVIPAAALAGYT [L8I]	2.64
YVRDRADGNKDKPVIPAAALAGYT [L8G]	2.12
YVRDRADCNKDKPVIPAAALAGYT [L8C]	1.96
YVRDRADPNKDKPVIPAAALAGYT [L8P]	1.87
YVRDRADTNKDKPVIPAAALAGYT [L8T]	2.44
YVRDRADRNKDKPVIPAAALAGYT [L8R]	1.88
YVRDRADENKDKPVIPAAALAGYT [L8E]	2.11
YVRDRADWNKDKPVIPAAALAGYT [L8W]	2.23
YVRDRADANKDKPVIPAAALAGYT [L8A]	2.17
YVRDRADDNKDKPVIPAAALAGYT [L8D]	1.67
YVRDRADMNKDKPVIPAAALAGYT [L8M]	2.9
YVRDRADVNKDKPVIPAAALAGYT [L8V]	2.31
YVRDRADNNKDKPVIPAAALAGYT [L8N]	2.53
YVRDRADFNKDKPVIPAAALAGYT [L8F]	2.72

Variant	protein stability index
YVRDRADQNKDKPVIPAAALAGYT [L8Q]	1.77
YVRDRADLNKIKPVIPAAALAGYT [D11I]	2.08
YVRDRADLNKAKPVIPAAALAGYT [D11A]	2.28
YVRDRADLNKCKPVIPAAALAGYT [D11C]	2.46
YVRDRADLNKMKPVIPAAALAGYT [D11M]	2.31
YVRDRADLNKPKPVIPAAALAGYT [D11P]	3.65
YVRDRADLNKVKPVIPAAALAGYT [D11V]	3.03
YVRDRADLNKNKPVIPAAALAGYT [D11N]	2.91
YVRDRADLNKRKPVIPAAALAGYT [D11R]	2.17
YVRDRADLNKFKPVIPAAALAGYT [D11F]	2.42
YVRDRADLNKKKPVIPAAALAGYT [D11K]	1.77
YVRDRADLNKYKPVIPAAALAGYT [D11Y]	2.59
YVRDRADLNKLKPVIPAAALAGYT [D11L]	4.14
YVRDRADLNKQKPVIPAAALAGYT [D11Q]	2.78
YVRDRADLNKSKPVIPAAALAGYT [D11S]	2.9
YVRDRADLNKGKPVIPAAALAGYT [D11G]	3.03
YVRDRADLNKTKPVIPAAALAGYT [D11T]	2.16
YVRDRADLNKHKPVIPAAALAGYT [D11H]	3.35
YVRDRADLNKEKPVIPAAALAGYT [D11E]	2.5
YVRDRADLNKWKPVIPAAALAGYT [D11W]	2.56
YVPDRADLNKDKPVIPAAALAGYT [R3P]	2.43
YVLDRADLNKDKPVIPAAALAGYT [R3L]	1.55
YVYDRADLNKDKPVIPAAALAGYT [R3Y]	2.54
YVIDRADLNKDKPVIPAAALAGYT [R3I]	1.66

Variant	protein stability index
YVSDRADLNKDKPVIPAAALAGYT [R3S]	2.12
YVTDRADLNKDKPVIPAAALAGYT [R3T]	2.3
YVNDRADLNKDKPVIPAAALAGYT [R3N]	2.43
YVMDRADLNKDKPVIPAAALAGYT [R3M]	1.52
YVVDRADLNKDKPVIPAAALAGYT [R3V]	1.55
YVWDRADLNKDKPVIPAAALAGYT [R3W]	1.68
YVKDRADLNKDKPVIPAAALAGYT [R3K]	2.56
YVQDRADLNKDKPVIPAAALAGYT [R3Q]	2.08
YVRDRADLHKDKPVIPAAALAGYT [N9H]	3.44
YVRDRADLTKDKPVIPAAALAGYT [N9T]	2.75
YVRDRADLVKDKPVIPAAALAGYT [N9V]	2.57
YVRDRADLKKDKPVIPAAALAGYT [N9K]	2.31
YVRDRADLMKDKPVIPAAALAGYT [N9M]	1.96
YVRDRADLAKDKPVIPAAALAGYT [N9A]	2.17
YVRDRADLRKDKPVIPAAALAGYT [N9R]	3.34
YVRDRADLFKDKPVIPAAALAGYT [N9F]	2.21
YVRDRADLDKDKPVIPAAALAGYT [N9D]	1.59
YVRDRADLSKDKPVIPAAALAGYT [N9S]	1.77
YVRDRADLIKDKPVIPAAALAGYT [N9I]	2.58
YVRDRADLLKDKPVIPAAALAGYT [N9L]	2.81
YVRDRADLGKDKPVIPAAALAGYT [N9G]	2.29
YVRDRADLPKDKPVIPAAALAGYT [N9P]	2.29
YVRDRADLQKDKPVIPAAALAGYT [N9Q]	1.66
YVRDRADLYKDKPVIPAAALAGYT [N9Y]	2.84

Variant	protein stability index
YVRDRADLWKDKPVIPAAALAGYT [N9W]	3.77
YVRDRADLCKDKPVIPAAALAGYT [N9C]	2.48
YVRDRADLEKDKPVIPAAALAGYT [N9E]	1.98
YVRDRKDLNKDKPVIPAAALAGYT [A6K]	1.2
YVRDRGDLNKDKPVIPAAALAGYT [A6G]	2.49
YVRDRTDLNKDKPVIPAAALAGYT [A6T]	1.88
YVRDRFDLNKDKPVIPAAALAGYT [A6F]	2.46
YVRDRWDLNKDKPVIPAAALAGYT [A6W]	2.71
YVRDREDLNKDKPVIPAAALAGYT [A6E]	2.27
YVRDRLDLNKDKPVIPAAALAGYT [A6L]	1.55
YVRDRCDLNKDKPVIPAAALAGYT [A6C]	2
YVRDRMDLNKDKPVIPAAALAGYT [A6M]	3.35
YVRDRSDLNKDKPVIPAAALAGYT [A6S]	2.05
YVRDRYDLNKDKPVIPAAALAGYT [A6Y]	2.28
YVRDRDDLNKDKPVIPAAALAGYT [A6D]	1.8
YVRDRHDLNKDKPVIPAAALAGYT [A6H]	1.87
YVRDRVDLNKDKPVIPAAALAGYT [A6V]	2.29
YVRDRRDLNKDKPVIPAAALAGYT [A6R]	1.72
YVRDRPDLNKDKPVIPAAALAGYT [A6P]	1.61
YVRDRNDLNKDKPVIPAAALAGYT [A6N]	2.08
YVRDRIDLNKDKPVIPAAALAGYT [A6I]	2.76
YVRDRQDLNKDKPVIPAAALAGYT [A6Q]	2.35
